From US20210130473A1, “TGFßR1 INHIBITOR-ASGR ANTIBODY CONJUGATES AND USES THEREOF” (Silverback Therapeutics, Inc., priority 2019, published 2021)

T1: human ASGR1 extracellular domain (ECD) (Homo sapiens, UniProt P07306)
T1 sequence (P07306 62-291 limits assumed): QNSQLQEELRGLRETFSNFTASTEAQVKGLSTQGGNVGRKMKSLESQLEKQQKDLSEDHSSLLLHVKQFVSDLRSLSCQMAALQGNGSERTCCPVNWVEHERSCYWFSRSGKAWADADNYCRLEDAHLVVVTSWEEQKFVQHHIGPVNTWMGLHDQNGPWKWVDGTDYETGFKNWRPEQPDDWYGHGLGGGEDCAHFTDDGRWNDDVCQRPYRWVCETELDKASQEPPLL

T2: rat ASGR1 (Rattus norvegicus, UniProt P02706)
T2 construct: expressed in transfected cells; host or cells: CHO-S (transient)
T2 sequence (P02706 1-284): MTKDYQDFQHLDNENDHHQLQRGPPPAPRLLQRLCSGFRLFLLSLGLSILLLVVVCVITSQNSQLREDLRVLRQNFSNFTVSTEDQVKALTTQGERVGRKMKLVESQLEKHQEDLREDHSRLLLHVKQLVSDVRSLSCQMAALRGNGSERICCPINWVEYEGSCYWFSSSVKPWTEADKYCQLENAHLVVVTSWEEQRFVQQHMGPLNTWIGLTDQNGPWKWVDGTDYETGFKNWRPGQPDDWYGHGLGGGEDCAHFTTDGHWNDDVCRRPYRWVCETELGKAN

T3: HepG2 cells (which express ASGR1) (Homo sapiens, UniProt P07306)
T3 construct: endogenous in cells; host or cells: HepG2
T3 sequence (P07306 1-291): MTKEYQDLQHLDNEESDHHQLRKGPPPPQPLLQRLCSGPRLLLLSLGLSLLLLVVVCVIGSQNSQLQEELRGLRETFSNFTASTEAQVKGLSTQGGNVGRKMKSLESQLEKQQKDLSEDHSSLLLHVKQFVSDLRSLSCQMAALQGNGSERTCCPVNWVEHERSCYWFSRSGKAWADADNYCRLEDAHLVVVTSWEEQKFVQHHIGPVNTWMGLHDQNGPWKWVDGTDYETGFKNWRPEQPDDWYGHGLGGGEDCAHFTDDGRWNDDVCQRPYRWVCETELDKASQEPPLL


Legend:
[1] = biological target: T1, human ASGR1 extracellular domain (ECD); assay: Effect of calcium on anti-ASGR1 binding and dissociation (OCTET Red 96, Penta-His biosensors); design: key to Ca2+ sensitivity during association / Ca2+ sensitivity during dissociation / Ca2+ Sensitivity: N = No; Y = Yes; details: for Ca2+ sensitivity during association: binding to human ASGR1 ECD with or without calcium; for Ca2+ sensitivity during association / Ca2+ sensitivity during dissociation: OCTET; for Ca2+ sensitivity during dissociation: dissociation from human ASGR1 ECD with or without calcium; for Ca2+ Sensitivity: overall summary column
Method: The ability of anti-human ASGR1 antibodies of this disclosure to bind to human ASGR1 in the presence or absence of calcium in binding buffer was examined. Briefly, ASGR1 antibodies were bound to immobilized human ASGR1 extracellular domain (ECD) at saturating levels and subsequently dissociated under three different conditions as follows: (a) binding and dissociation with buffer containing calcium (PBS+1% BSA+0.2% Tween20+0.9 mM CaCl2), pH 7.4); (b) binding with buffer containing calcium and dissociation with buffer lacking calcium; and (c) binding and dissociation with buffer lacking calcium. Analysis of ASGR1 antibody binding to human ASGR1 ECD was performed using the OCTET® Red 96 instrument and analyzed using the OCTET®Data Analysis Software 9.0 (ForteBio). His-tagged human ASGR1 ECD was immobilized to OCTET® Penta-His biosensors and ASGR1 antibodies were subjected to avidity binding under the conditions described above. Association with the ASGR1 ECD was measured by the rate of and increase in magnitude of signal response at a given antibody concentration. Dissociation from the ASGR1 ECD was measured the rate of loss in signal upon removal of the antibody and further incubation with or without Ca^2+. […] Also tested were humanized antibodies hzH8K-1 and hzL4L-7.
Further analysis of the antibodies of this disclosure was to determine whether the presence of calcium was needed for binding (i.e., during association) of the antibodies to human ASGR1 ECD. […]

rat ASGR1 = biological target: T2, rat ASGR1; assay: Binding to cell surface expressed rat ASGR1 (transiently transfected CHO-S cells, GUAVA)
Method: Anti-human ASGR1 antibodies of this disclosure were examined for cross-reactivity with Cynomolgus macaque and rat ASGR1. Briefly, sequence encoding Cynomolgus macaque or rat ASGR1 was transiently transfected into CHO-S cells. Transfected cells were before performing cell binding assay. A total of about 1.5×10^4 transfected cells/well were added to 96-well V-bottom assay plate, incubated at 37° C., 5% CO2 for 48-72 hours, and then washed with culture medium before adding 100 μl of each ASGR1 antibody at different concentrations starting from 100 nM and 3-fold dilutions to a total of eight wells. The cells with antibody were incubated for 40 minutes at 4° C., then washed three times with 200 μl of fresh culture medium. To each well was added 50 μl PE conjugated goat anti-human Fc (SouthernBiotech) at 1:200 dilution in culture medium and then incubated at 4° C. for 20 minutes. After washing the plate once, the treated cells were resuspended in 200 μl culture medium and then the stained cells were analyzed on GUAVA® using Incyte software.
Anti-human ASGR1 antibodies of this disclosure were examined for cross-reactivity with Cynomolgus macaque and rat ASGR1. […] After washing the plate once, the treated cells were resuspended in 200 μl culture medium and then the stained cells were analyzed on GUAVA® using Incyte software.

[2] = biological target: T3, HepG2 cells (which express ASGR1); assay: Guava HepG2 cell binding screen of anti-ASGR1 mAbs; details: humanized L4L clones; Good / Poor
Method: Additionally, hybridomas producing monoclonal antibodies (mAbs) specific for human ASGR1 were prepared from Balb/C mice immunized with ASGR1-AviHis at a service provider using their propriety protocol. Antibody heavy and light chain sequences were obtained, amplified, and cloned. Clone supernatants containing the expressed mAbs were screened for binding to a human ASGR1-IgG1Fc fusion protein, and those with a positive signal as measured by enzyme linked immunosorbent assay (ELISA) were screened for cell binding on HepG2 cells (which express ASGR1). […] The isolated mAbs were further analyzed for the additional characteristics including, for example, titer, low aggregate content following protein A purification, high titer, lack of cross-blocking of ligand GalNac, calcium sensitivity, and cross-reactivity with rat ASGR1 protein.

| Ca2+ sensitivity during association [1] | Ca2+ sensitivity during dissociation [1] | Ca2+ Sensitivity [1] | calcium sensitivity of binding to human ASGR1 ECD ([1]; sensitive: difference in binding signal after dissociation with vs without calcium >±10%) | binding to rat ASGR1 (rat ASGR1) | Guava HepG2 Screen [2] | Molecule |
| --- | --- | --- | --- | --- | --- | --- |
| N | N | N | lacking sensitivity to calcium | not rat cross-reactive | Good | hzL4L-7: "humanized anti-ASGR1 antibodies hzL4L-7 and hzL4L-14 as compared to parent mouse anti-ASGR1 antibody L4L" (antibody, V domains shown) VH: QVQLQESGPGLVKPSQTLSLTCTVSGYSISSDYAWNWIRQHPGKGLEWIGYISYSGSTRYNPSLKSRVTITRDTSKNQFSLKLSSVTAADTAVYYCARRYRYDEGYGMDYWGQGTTVTVSS VL: DIQMTQSPSSLSASVGDRVTITCRASENIYSNLAWYQQKPGKAPKLLIYAATNLADGVPSRFSGSGSGTDFTLTISSLQPEDFATYYCQHFWGTPPWTFGGGTKVEIK |
| N | N | N | – | not rat cross-reactive | – | hzH8K-1: "humanized anti-ASGR1 antibodies hzH8K-1 and hzH8K-10 as compared to parent mouse anti-ASGR1 antibody H8K" (antibody, V domains shown) VH: QVQLQESGPGLVKPSQTLSLTCTVSGGSISSDYAWNWIRQHPGKGLEWIGYRSYRGSTSYNPSLKSRVTISVDTSKNQFSLKLSSVTAADTAVYYCARRGYYGSSSHWYFDVWGQGTTVTVSS VL: DIQMTQSPSSLSASVGDRVTITCRASENIYSYLAWYQQKPGKAPKLLIYNAKTLAEGVPSRFSGSGSGTDFTLTISSLQPEDFATYYCQHHYGTPLTFGGGTKVEIK |
